Data published in the DeepSol protein solubility set.

assay: soluble on expression in E. coli; label from the status in PepcDB or PDB records

Row | Sequence | soluble on expression in E. coli
1 | MSLTSLYTGTFVDTPTPAGLRVRRNHLLAVSAQGAIAHIAPVSDPASQALLASAPPPTALGRHSFFLPTYADLHLHAAQYLYAGTGLDLPLLEWLERYAYRAEERVDADEQLAERLYGRLVQRLRENGTGCVVFFGTIGVQANLILARKAQEAGIRAFIGKLSMDESPRPSYGEASPAASLSSLNSFLDSMESYLSQFPSHRRLVQPIITPRFVPVCSDELLQGLAKVAQDRNVRLQSHMCEGRDQIDMSLKTKGLDDEKVFDKFGLLGPQTLQAHVTYLDDKLIPLIKERGVTIAHCPLSNQYLSERQFPLREALDASLSLGLGTDIAGGYSPSIHTAMRQAVIISRMREGDRCESLGCSFGTVKKEEEGGGRNLRVDWKEAVWAATRGGKAGMGLGGALEVGMEFDVQLIELASEENPTGTGPLDLFDLADSQVDTDTDEWWFDALERWWSNGDERNRKGMWVQGAKIAEGHHHHHH | soluble
2 | MSLTSQVSSTTEQADEPVVGEQRKPAGAKDVRRLDRVIIRFAGDSGDGMQLTGDRFTSETASFGNDLSTLPNFPAEIRAPAGTLPGVSSFQLHFADHDILTPGDAPNVLVAMNPAALKANVSDLPRGAEVIVNTDEFTKRAMQKVGYGTSPLEDGSLDGYSVHPVPLTTLTVEALKEFELSRKEAERSKNMFALGLLSWMYHRPTEGTEKFLTTKFAKKPAIAAANIAAFRAGWNFGETTEDFAVSYEVAPAQSAFPAGTYRNISGNLALSYGLIAASRQADLPLYLGSYPITPASDILHELSKHKNFGVRTFQAEDEIAGIGAALGAAFGGSLAVTTTSGPGVALKSETIGLAVSLELPLLVVDIQRGGPSTGLPTKTEQADLLQAMYGRNGEAPVPVVAPRTPADCFEAAIEAARIALTYRTPVFLLSDGYLANGSEPWRIPETDGLPDLRVRFAQGPNHTLDDGTEVFWPYKRDPGTLARPWAIPGTPGLEHRIGGIEKQDGTGNISYDPANHDFMVRTRQAKIDGIDVPDIEVDDPDGASALVLGWGSTYGPITAAVRRLRTAGESIAQAHLRHLNPFPSNLGAVLKGYDKVVIPEMNLGQLATLIRAKYLVDAHSYNQVNGMPFKAEQLATALKEAIDEGHHHHHH | not soluble
3 | MSLTSTIIDVRAKLYTWKGDVQKIHENFCTNAADLVNQDNISNDRWATYKFLSWLVVEVETSDGHIGIGNAALSPKPCKSVVDNYLKPAIIGESIWDYEHIWQKMYRQTLAWGRKGIGMTAISAVDIAIWDALGKTVKQPVFKLLGGKTKSKLPCYASKLYSQPLDSLAKEAKDYLDQGFKAMKLRLGWGPNDGAEGMRKNIELIRTVRSVVGEDVDLMADVYMGWTFEYAKRMMRLIDNENLRWLEEPVIADDIDGYADLKASCQTPISGGEHEYTLFGFRQLLEKKAVDVVQFDTNRVGGITQAHKICALAEAFQIPVIPHAGQVHNFHISMSSINAPIVEYFPFWPVEIGNELFWYIFDGEPQAKDGYIELDDTKPGLGIELSEKYLKDFVIEVEGHHHHHH | soluble
4 | MSLTTKDHSLATESPTLQQLGEFAVIDRLVRGRRQPATVLLGPGDDAALVSAGDGRTVVSTDMLVQDSHFRLDWSTPQDVGRKAIAQNAADIEAMGARATAFVVGFGAPAETPAAQASALVDGMWEEAGRIGAGIVGGDLVSCRQWVVSVTAIGDLDGRAPVLRSGAKAGSVLAVVGELGRSAAGYALWCNGIEDFAELRRRHLVPQPPYGHGAAAAAVGAQAMIDVSDGLLADLRHIAEASGVRIDLSAAALAADRDALTAAATALGTDPWPWVLSGGEDHALVACFVGPVPAGWRTIGRVLDGPARVLVDGEEWTGYAGWQSFGEPDNQGSLGEGHHHHHH | soluble
5 | MSLTVERVSAPTPAAFVDAANAAFRNGAVLSVQARCEVEYNGRTSGYLGDGDRLLVAKPDGTFLVHQPTGHKPVNWMPGGGTVEARTSQGDAVLLARRSNPTERVETRLHEVYGVTRFDAEDGATYEESGTEAEMHEYIEANPDALEAGLRIVEHERETKYGFIDFYAVDGDGTPVVIEVKRIQATLNHFDQLKRYVDRYAETNDDVRGMLVAPSASERVTRALRDNGLEFVALAEFGLDAKGATEAKLTDFEGHHHHHH | soluble
6 | MSLVEDGKATLGLRNFYINRNFTNPSNPQSKAEEWTQSFILDARSGFTEGPIGFGVDVLGLWSVKLDGGGGTYGTALLPRHDDGRPADDYGRLAVAGKARISKTELKIGEWMPVLPILRSDDGRSLPQTFRGGQVTSNEIAGLTLYGGQFRGNSPRNDASMEDMSYGGGVSDRFNFVGGEYKFNQDRTQVGLWNAVLKDVYQQQYLQLSHSQPVGDWTLGANLGYFHGDEDGSERAGQLDNKTYSGMFSAKYGGSTFWVGLQKVDGDTWMRVNGTSGGTLANDSYNSSFDNANERSWQVRHDFNFVTVGVPGLTLMNRYISGRDVHSGGVTDGKEWVRETELAYVIQSGAFKDLSVKWRNSSIRRDYSNNEFDENRLIFNYPLSLLEGHHHHHH | soluble
7 | MSLVLYRKLKKAKSLEEIKNTFKNLTKSISSLVMRGMHFYDLSNILTEIYDYLVVKVIEMEKERFEREWGKLPSFAWVHMGSSARKEQVIATDQDNAIVHEGDGEGLSQFAESVNNALDYVGIPKCRGGYMAMNWCKSVEEWKSVFSEWFIKLTPDNLRFLSVFLDLRVIYGDEKLCKELIEHIKREHTSQSLRYLAYDATIAEPPLGLFGLRMKKEIDLKMNGIYPIVNGVRVLALEHGLIEVTNTRERLEELKEAHVMDADLAESLKETYEFLQDLRLRLQAKEVVEGKKADNVIKVSEIDRIEAFVLKEGFKVIKKFQNFLKGHYSIERGLEGHHHHHH | soluble
8 | MSLVMDSLIIKQLIKSTFDIPLQVTYPNGNIETYNGSNPHVKLKLNKNFSVSELSKDPSIVLGEAVMDGDIEIYGSIQELILSAYRCGDSFLRNSKFSKLIPKQFHDKKHSKSDIQKHYDIGNDFYKLWLDDTMTYSCAYFKHENDSLEQAQLNKVHHILNKLNAQPGGKLLDIGCGWGTLIITAAKEYGLNATGITLSEEQASFITKRIKEEGLENKVTVLIKDYRDIRETYDYITSVGMFEHVGKENLSQYFQTISKRLNINGLALIHGITGQVGGNHGSGTNSWINKYIFPGGYIPRLTENLNHIASAGLQIADLEPLRRHYQKTLELWTKNFHNALPEVQKTHDKRFINMWDLYLQSCAASFESGNIDIFQYLLSKGVSKDTMPMTRDYMYSANEGHHHHHH | soluble
9 | MSLVNSLTHYEILRIPSDATQDEIKKAYRNRLLNTHPDKLSKSIHDTVSNVTINKIQDAYKILSNIKTRREYDRLILENYKRQGFHNCGDGLDEFSLDDFSFDEDKLEFMMNCPRCQFVGGFHFSESLLDECIDNVDAMERSHSGYQLLTQCSACSLWLKVNFDIEEEQEGQ | not soluble
10 | MSLVPAFPHSTSPTTTVIAVPPALSLPVIETDFPRQLHPYWPRLQEKTRSWLLEKRLMPADKVEEYADGLCYTDLMAGYYIGAPDEVLQAIADYSAWFFVWDDRHDRDVIHRRATAWRQLRFQLHTALDSPRDHLHHRDPLVAGFADSMVRLYSFLGKKWNARFACHFHAVIEAYDREFHNRTRGIVPTVEEYLELRRLTFAHRIWTDLLEPSARHEIPAGVREHPGYRRAALLSQEFAAWYNDLCSLPKEIAGDEVHNLGISLIHHEGLTLEEAVTEVRRRVEECIAEFLVAEKEAVHLADGLADGTRAGHELSDAVKACVANMRNWFSTVYWFHHESGRYRVDSWDDRSTPPYVNNEAAGEGHHHHHH | soluble
11 | MSLVQSINTKVDLTIDATAYTGLTDYGKIMIGDKGFEFFNSRDVRKFVQIPWEEVDQVIVSVMLKGKWIPRYAIKTKRNGTYTFASKRPKEVLRKIRVYVDPANMVSSLSFFDVMKRSFRSIFSKKKNKNKEGHHHHHH | not soluble
12 | MSLVRQLIGRTLSGTVTMCAGPFRSVLNMLHRPQWETAMIAPLPAVDMRVICAGHVNWDVTLHVDHLPKPDGEGRITDRSQSSGGSASNAAVALAGLDADPLVLGSVGRDDHGTMARRELAATGVETLLIESDEATAVKYLIVDENGDVAVLGNDGANEAFNASDLPAETLAEADHLHLTGQNPTTAATLARDAAAADVPVSFDPGRRLPYRDYSSVLSHAEILFCNDREADHARDSGLFETVPTVVVKHGDCGATAHIGDQTVTNAGYPIESVDTAGAGDAFAAGYLLASAQETDPERALAVANACGALAAQSSGARTTLDWESVWELVDSGQEGHHHHHH | soluble
13 | MSLVSSTLKSVSRCRHFRIDGFWLQTVMSDIFSHTALSNLAEFSVSELSGSIKRTVETAFEQVRVRGEISGYRGPHSSGHAYFSLKDDRARIDAVIWKGTFSRLKFRPEEGMEVIATGKITTFPGSSKYQIVIESLEPAGAGALMALLEDRRRRLAAEGLFDSARKRPLPFMPRVIGVVTSPTGAVIRDILHRISDRFPVHVVVWPVKVQGEGSGEEVANAIRGFNALKPGGDIARPDVLIVARGGGSLEDLWSFNDEIVVRAAAESEIPLISAVGHETDTTLIDYAADVRAPTPTGAAEMAVPVRAELEAQLSGLAARLSGSVSRQMDNRRQGVRALVRALPSLDQLLALPRRRFDEAASGLGRGLELTTLNKRRAFERSASGLRPETLLNGLKHHRQRITERMHRAETLVERRLLQGKGRVDSFDSALRSLPARLLGQLERQKERVVTAARRADTAVLHRMAQNRSGLAAHDRILQSLSYKNVLNRGYAVIRDEENRPLTRAAAIASGAAVSMEFADGRVSAITTGEGTPAPETAAAPKKKPAKPASSDPGNQGNLFEGHHHHHH | not soluble
14 | MSLVVVSDVFVSVRGRVMLNVEAMNMTESVGNYVKHRRVPVVLPDAKYTTYFVPAISGESIAHGFQEVLAEVGKKNGLKVCKLCEKGIFLKSTNENVFKESFSSDPPKDDFEFEKTVIENCIVEDVGGFLYAPRAGGNVKRTSNFYTGYMIPVRESIEGAVIEPQLHSRYALGTPFVEGGQGQMIYYVELSSAVYTFSFDLDTRYIGRTTFSYEKAGTEVGKRSERINAALEALKKFLIEFAFGAKKTRFLPVMEWDSLVVAVSDDVWTVPSPYTAGYIDNARKKKEKVNFNTKLFVYPEGGSFEEVVVEAIEEAKERAGKEGHHHHHH | soluble
15 | MSLVYLNSNFLYGDDFEPKKGTLVIEDEIIKGFTSEHHSNVLNYKGLVIPPLINSHTHIGDNSIKDIGIGKSLDELVKPPNGLKHKFLNTCSEKELVQGMSEGLYDLENNGIKAFCDFRENGLNGINSLKSAFEDSNVSIKPIILGRPTQREENLLKDEISIILDNCDGLGLSGSNEYSDQELKFICKLVNKKILSIHANEHKGSVQYSKEKYGISEIERLINLNIKPDFLIHATHSSSDDLSLLNENKIPVVVCPRANASFNVGLPDIPKMLEYNLKLGIGTDNFMANSPSIFKEMDFIYKIYHVDPKEILKMATINGAEILGLQNTGVIKEGYIPTFTFIKNGNILKTSKNIAASVVTRLENGDVDSKFLVCEGHHHHHH | not soluble
16 | MSLVYMAINAVAGTIREFSPKDIESVYRIAQTSLTEYYTQALILDLHREWPESFMVYTVAGSVVGFIVGSKYSRTEARILLFAVDERFRRMGVGSALMDAFLSLCREQNMLSVRLEVRTDNDEAIRFYKKYGFVITAMLPNYYSDSSNAYTMWRIVEGHHHHHH | not soluble
17 | MSLYNFLGKELKSPLIIGSGPLTYSAAGCKILSDAGAGAVVTKTIRKERAINPAPHMVRNTANALLNNEKWTDFEPEQWIDFEIPQMKRDGTVCIASIGHTIEESSELVEKVANAGADFIELVSYDYRDLIPMLKDAKERVNIPVIVKLPPMIDEIGDFAKKLEEAGADAITACDSVGPAFRIDIETGQPLLGGNGIGYLSGETIKPITLQRIYEIKKQVNIPIIGLGGCVSGDDALEMIMAGADFVGICSVVILKGAQVISKIHDDLKSNLNRLGYNTIENACGIVHNHMGDVNEREGHHHHHH | soluble
